Target: rpgr_mouse Rpgr (UniProt Q9R0X5)
Sequence (Q9R0X5 whole entry): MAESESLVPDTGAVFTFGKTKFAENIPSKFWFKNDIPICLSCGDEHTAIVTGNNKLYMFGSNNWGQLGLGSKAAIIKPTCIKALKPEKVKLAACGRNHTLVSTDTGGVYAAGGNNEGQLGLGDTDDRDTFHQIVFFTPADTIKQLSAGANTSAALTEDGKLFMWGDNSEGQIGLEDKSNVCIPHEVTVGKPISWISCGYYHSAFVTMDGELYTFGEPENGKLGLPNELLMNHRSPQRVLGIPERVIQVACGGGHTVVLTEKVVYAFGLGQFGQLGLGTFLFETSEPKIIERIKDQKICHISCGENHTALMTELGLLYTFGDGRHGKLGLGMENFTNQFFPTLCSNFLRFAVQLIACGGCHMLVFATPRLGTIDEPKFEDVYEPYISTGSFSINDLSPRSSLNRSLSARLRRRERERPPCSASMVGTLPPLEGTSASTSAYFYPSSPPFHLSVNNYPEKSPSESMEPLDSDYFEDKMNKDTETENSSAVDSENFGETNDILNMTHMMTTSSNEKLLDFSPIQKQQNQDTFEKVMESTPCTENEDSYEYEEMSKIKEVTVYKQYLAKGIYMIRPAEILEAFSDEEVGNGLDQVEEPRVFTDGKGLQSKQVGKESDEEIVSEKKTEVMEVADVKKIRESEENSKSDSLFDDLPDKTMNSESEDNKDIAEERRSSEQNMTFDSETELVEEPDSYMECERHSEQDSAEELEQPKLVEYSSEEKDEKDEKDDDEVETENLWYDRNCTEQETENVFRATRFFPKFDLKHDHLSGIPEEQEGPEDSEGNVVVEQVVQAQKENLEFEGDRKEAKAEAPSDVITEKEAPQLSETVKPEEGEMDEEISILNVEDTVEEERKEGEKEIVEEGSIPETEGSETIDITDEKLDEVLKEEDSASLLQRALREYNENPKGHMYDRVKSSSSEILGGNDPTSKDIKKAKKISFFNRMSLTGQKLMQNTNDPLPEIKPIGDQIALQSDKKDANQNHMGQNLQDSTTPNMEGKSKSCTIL

Sequence of Protein fantom (Homo sapiens), Q68CZ1 A229T (Q68CZ1 whole entry A229T): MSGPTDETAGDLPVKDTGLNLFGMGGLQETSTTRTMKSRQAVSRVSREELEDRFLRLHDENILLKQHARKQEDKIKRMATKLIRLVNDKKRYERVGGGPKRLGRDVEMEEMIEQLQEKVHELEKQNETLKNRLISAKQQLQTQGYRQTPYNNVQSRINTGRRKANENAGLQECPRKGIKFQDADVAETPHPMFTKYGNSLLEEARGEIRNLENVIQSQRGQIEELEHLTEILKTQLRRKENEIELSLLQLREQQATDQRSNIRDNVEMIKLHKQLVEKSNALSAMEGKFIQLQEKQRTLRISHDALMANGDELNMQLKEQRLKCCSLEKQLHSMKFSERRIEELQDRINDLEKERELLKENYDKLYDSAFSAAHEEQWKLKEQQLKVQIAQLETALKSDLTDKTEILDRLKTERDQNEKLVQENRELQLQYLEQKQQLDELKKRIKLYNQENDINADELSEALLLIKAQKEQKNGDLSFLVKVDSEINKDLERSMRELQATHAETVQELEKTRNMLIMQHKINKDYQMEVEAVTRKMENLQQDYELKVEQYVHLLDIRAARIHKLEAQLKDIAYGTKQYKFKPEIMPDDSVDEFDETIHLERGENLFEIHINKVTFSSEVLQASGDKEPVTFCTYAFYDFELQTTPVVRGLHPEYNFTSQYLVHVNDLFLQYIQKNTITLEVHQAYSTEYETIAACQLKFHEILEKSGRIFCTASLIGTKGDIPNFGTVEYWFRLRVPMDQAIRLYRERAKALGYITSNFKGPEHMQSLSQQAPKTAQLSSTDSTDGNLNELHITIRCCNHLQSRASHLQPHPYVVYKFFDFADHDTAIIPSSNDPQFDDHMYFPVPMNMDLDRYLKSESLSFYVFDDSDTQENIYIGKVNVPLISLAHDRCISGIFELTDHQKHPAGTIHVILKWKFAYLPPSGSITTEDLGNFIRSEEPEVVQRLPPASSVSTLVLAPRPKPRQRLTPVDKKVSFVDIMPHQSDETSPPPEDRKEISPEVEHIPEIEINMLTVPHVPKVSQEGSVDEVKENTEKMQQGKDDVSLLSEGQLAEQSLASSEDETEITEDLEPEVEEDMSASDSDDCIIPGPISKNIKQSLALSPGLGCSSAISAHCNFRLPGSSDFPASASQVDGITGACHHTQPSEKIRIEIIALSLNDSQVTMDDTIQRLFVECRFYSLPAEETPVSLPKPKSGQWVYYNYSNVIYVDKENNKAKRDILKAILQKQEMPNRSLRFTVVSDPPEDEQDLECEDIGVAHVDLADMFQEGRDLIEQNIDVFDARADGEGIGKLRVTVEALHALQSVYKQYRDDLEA

Substance | effect of a mutation on the interaction
Protein fantom (Homo sapiens), Q68CZ1 A229T | decreasing interaction strength
Protein fantom (Homo sapiens), Q68CZ1 A695P | decreasing interaction strength
Protein fantom (Homo sapiens), Q68CZ1 T615P | decreasing interaction strength
Protein fantom (Homo sapiens), Q68CZ1 T677I | with no effect
